Where two headings read alike, the source gives them in different places.

Broadly, the stoichiometry N is the number of molecules, sites or subunits per partner or assembly.

Series [1] concerns the molecule itself. Put plainly: SAXS.
Series [2] deals with the molecule itself. Description: SAXS. This is another data set of the same source.

B1: apo-bacterioferritin from E. coli (core-free, heme B bound) (natural protein)
chain: not shown
Regarding B1, the “stoichiometry N” value in “SAXS [1]” stood at 2; in the series “SAXS [2]”, 24.

The record behind these values is paper doi:10.1101/2020.06.16.154534 (bioRxiv, 2020).
